Holding throughout (assay): cell-based or functional assay
For assay [1], the target named is interleukin (IL)-8 (human) (UniProt P10145).
Assay [2] has as its target interleukin (IL)-6 (human) (UniProt P05231).
Assay [3] concerns the target monocyte chemoattractant protein-1 (human) (UniProt P13500).
Assay [4] has as its target tissue inhibitor of metalloproteinases-1 (human) (UniProt P01033).

A value given as a limit tells only on which side of the number the result lay.

Chain of tissue inhibitor of metalloproteinases-1 (human) (P01033 24-207 limits assumed): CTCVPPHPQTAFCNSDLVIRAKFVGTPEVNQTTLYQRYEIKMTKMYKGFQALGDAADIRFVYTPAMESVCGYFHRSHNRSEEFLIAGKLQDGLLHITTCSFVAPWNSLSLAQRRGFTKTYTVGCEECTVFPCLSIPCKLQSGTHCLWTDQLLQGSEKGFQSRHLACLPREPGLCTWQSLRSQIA
Chain of interleukin (IL)-6 (human) (P05231 30-212 limits assumed): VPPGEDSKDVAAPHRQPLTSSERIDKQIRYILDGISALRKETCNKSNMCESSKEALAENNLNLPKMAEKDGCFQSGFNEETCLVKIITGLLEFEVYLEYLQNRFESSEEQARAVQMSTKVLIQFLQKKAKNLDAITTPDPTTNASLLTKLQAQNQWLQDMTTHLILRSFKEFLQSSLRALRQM
Chain of monocyte chemoattractant protein-1 (human) (P13500 24-99 limits assumed): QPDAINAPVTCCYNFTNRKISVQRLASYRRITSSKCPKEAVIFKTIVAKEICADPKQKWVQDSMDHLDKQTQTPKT
Chain of interleukin (IL)-8 (human) (P10145 28-99 limits assumed): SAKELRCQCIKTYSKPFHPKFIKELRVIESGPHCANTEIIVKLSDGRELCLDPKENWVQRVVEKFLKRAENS

Take “IL-8 inhibitory antibody (R&D Systems AB208NA)”: the decrease in in vitro ovarian cancer cell homing toward adipocytes (Matrigel plug, fluorescence) in assay [1] is more than 50%.

Consider “IL-6 inhibitory antibody (R&D Systems AB206NA)”, for which the decrease in in vitro ovarian cancer cell homing toward adipocytes (Matrigel plug, fluorescence) in assay [2] was more than 50%.

“MCP-1 inhibitory antibody (R&D Systems AB279NA)”: the decrease in in vitro ovarian cancer cell homing toward adipocytes (Matrigel plug, fluorescence) in assay [3] was more than 50%.

For “TIMP-1-specific inhibitory antibody (R&D Systems AF970)”, the decrease in in vitro ovarian cancer cell homing toward adipocytes (Matrigel plug, fluorescence) in assay [4] is more than 50%.

The record behind these values is patent US20140363522A1.
